Results published in patent US20230111418A1 (TESARO, published 2023).

Legend:
[1] = target: T1, Human PD-1 on the cell surface (human, UniProt Q15116 25-288); assay: cell-based or functional assay
[2] = target: T1, Human PD-1 on the cell surface; assay: cell-based or functional assay; remark: listed apart in the source
[3] = target: T2, Human PD-1 (SPR analyte/ligand; human PD-1 Fc fusion) (human, UniProt Q15116 25-167, limits assumed); assay: SPR
T2 construct: not shown: Fc part of the fusion

[4] = target: T3, Cynomolgus monkey PD-1 (SPR analyte/ligand; cynomolgus monkey PD-1 Fc fusion) (cynomolgus monkey, UniProt B0LAJ3 25-170); assay: SPR
T3 construct: also called Cyno PD-1
T3 sequence (B0LAJ3 entry or part of it limits assumed): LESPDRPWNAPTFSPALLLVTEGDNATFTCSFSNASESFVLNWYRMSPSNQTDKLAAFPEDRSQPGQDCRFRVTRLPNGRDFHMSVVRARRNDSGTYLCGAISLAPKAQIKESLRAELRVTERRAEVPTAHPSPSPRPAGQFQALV

[5] = target: T1, Human PD-1 on the cell surface; assay: flow cytometry on CHO-K1 cells expressing human PD-1
[6] = target: T4, Cynomolgus monkey PD-1 expressed on CHO-K1 cells (cynomolgus monkey, UniProt B0LAJ3 25-288); assay: flow cytometry on CHO-K1 cells expressing cynomolgus monkey PD-1
T4 construct: also called Cyno PD-1; cell surface cynomolgus PD-1
T4 sequence (B0LAJ3 entry or part of it limits assumed): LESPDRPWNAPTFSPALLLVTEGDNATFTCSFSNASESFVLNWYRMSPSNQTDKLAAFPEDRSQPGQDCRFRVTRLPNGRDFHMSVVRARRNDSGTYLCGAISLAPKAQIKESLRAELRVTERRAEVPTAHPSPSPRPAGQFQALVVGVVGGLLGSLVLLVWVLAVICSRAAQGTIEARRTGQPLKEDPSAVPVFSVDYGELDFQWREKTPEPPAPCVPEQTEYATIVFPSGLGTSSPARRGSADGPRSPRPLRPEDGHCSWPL

T1 sequence (Q15116 25-288): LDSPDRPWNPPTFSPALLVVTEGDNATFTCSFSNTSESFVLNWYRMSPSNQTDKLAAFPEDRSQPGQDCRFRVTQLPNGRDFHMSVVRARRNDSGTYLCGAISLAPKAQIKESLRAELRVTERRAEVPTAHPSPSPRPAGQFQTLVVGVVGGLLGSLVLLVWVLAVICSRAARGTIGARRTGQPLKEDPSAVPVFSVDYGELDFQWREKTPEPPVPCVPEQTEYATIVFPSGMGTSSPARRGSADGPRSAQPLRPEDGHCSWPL
T2 sequence (Q15116 25-167 limits assumed): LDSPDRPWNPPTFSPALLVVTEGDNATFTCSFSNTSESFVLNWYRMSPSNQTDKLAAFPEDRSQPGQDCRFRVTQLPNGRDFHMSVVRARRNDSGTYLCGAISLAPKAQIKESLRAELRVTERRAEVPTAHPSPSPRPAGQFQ

Binder | mean IL-2 stimulation ratio in fRO assay, Day 3, across all dose levels [1] | IL-2 stimulation ratio in fRO assay, 1 mg/kg, Baseline (n=6) [2] | IL-2 stimulation ratio in fRO assay, 1 mg/kg, Day 3 (n=6) [2] | IL-2 stimulation ratio in fRO assay, 1 mg/kg, Day 15 (n=6) [2] | IL-2 stimulation ratio in fRO assay, 1 mg/kg, Day 22 (n=2) [2] | IL-2 stimulation ratio in fRO assay, 1 mg/kg, Day 29 (n=2) [2] | IL-2 stimulation ratio in fRO assay, 3 mg/kg, Baseline (n=3) [2] | IL-2 stimulation ratio in fRO assay, 3 mg/kg, Day 3 (n=3) [2] | IL-2 stimulation ratio in fRO assay, 3 mg/kg, Day 15 (n=3) [2] | IL-2 stimulation ratio in fRO assay, 10 mg/kg, Baseline (n=4) [2] | IL-2 stimulation ratio in fRO assay, 10 mg/kg, Day 3 (n=3) [2] | IL-2 stimulation ratio in fRO assay, 10 mg/kg, Day 15 (n=1) [2] | Kd [3] | koff [3] | kon [3] | Kd [4] | koff [4] | kon [4] | EC50 [5] | EC50 [6]
exemplary humanized monoclonal anti-PD-1 antibody (human IGHG4*01 heavy chain with Ser to Pro hinge mutation at S228, human IGKC*01 kappa light chain; CDRs SEQ … (antibody, human IgG4 S228P, kappa, V domains shown, N-glycosylation at asparagine residue 293 (SEQ ID NO: 3)) VH: EVQLLESGGGLVQPGGSLRLSCAASGFTFSSYDMSWVRQAPGKGLEWVSTISGGGSYTYYQDSVKGRFTISRDNSKNTLYLQMNSLRAEDTAVYYCASPYYAMDYWGQGTTVTVSS VL: DIQLTQSPSFLSAYVGDRVTITCKASQDVGTAVAWYQQKPGKAPKLLIYWASTLHTGVPSRFSGSGSGTEFTLTISSLQPEDFATYYCQHYSSYPWTFGQGTKLEIKR | 1 ratio | 1.69 ratio | 1.01 ratio | 1 ratio | 1.32 ratio | 1.08 ratio | 1.62 ratio | 0.927 ratio | 0.977 ratio | 1.86 ratio | 1.05 ratio | 0.86 ratio | – | – | – | – | – | – | – | –
PD-1-binding agent (comprising SEQ ID NOs: 1 and 2) (antibody, V domains shown, It is probably the same humanized IgG4 (S228P)/kappa antibody as m2) VH: EVQLLESGGGLVQPGGSLRLSCAASGFTFSSYDMSWVRQAPGKGLEWVSTISGGGSYTYYQDSVKGRFTISRDNSKNTLYLQMNSLRAEDTAVYYCASPYYAMDYWGQGTTVTVSS VL: DIQLTQSPSFLSAYVGDRVTITCKASQDVGTAVAWYQQKPGKAPKLLIYWASTLHTGVPSRFSGSGSGTEFTLTISSLQPEDFATYYCQHYSSYPWTFGQGTKLEIKR | – | – | – | – | – | – | – | – | – | – | – | – | 0.3 nM | 0.00017 s⁻¹ | 570000 M⁻¹ s⁻¹ | 0.53 nM | 0.00023 s⁻¹ | 430000 M⁻¹ s⁻¹ | 2 nM | 3.4 nM
